From patent US20240392004A1 (IMMUNOWAKE, published 2024) come the findings set out here.

Numbering of substitutions follows the chain as printed. Names may count otherwise.

One test deals with T1, mouse PD-1 (mouse, UniProt Q02242 25-167, limits assumed).
T1 construct: also called mPD-1
T1 sequence (looked up): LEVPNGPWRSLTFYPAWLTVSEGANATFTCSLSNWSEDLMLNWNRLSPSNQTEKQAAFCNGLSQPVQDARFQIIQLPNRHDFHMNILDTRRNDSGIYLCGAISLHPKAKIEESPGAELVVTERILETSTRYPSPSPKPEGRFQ
The experiment in a line: PD-L2-Fc format, calibrated on PD-L2(wt)-Fc, method not stated.

Test [1] addresses T2, human PD-1 (human, UniProt Q15116 25-167, limits assumed).
T2 construct: also called hPD-1
The description is as above.

The target in test [2] is T2, human PD-1. Nature of the test: same value as Table 11 (measured on the antibody without IL-12).
The target in test [3] is human IL-12 receptor complex (IL-12Rβ1 and IL-12Rβ2) (human, UniProt P42701 24-662; Q99665 24-862). The experiment in a line: cell-based or functional assay.
Sequence of human IL-12 receptor complex (IL-12Rβ1 and IL-12Rβ2) (Q99665 24-862, chain 2 of 2, other chains not shown): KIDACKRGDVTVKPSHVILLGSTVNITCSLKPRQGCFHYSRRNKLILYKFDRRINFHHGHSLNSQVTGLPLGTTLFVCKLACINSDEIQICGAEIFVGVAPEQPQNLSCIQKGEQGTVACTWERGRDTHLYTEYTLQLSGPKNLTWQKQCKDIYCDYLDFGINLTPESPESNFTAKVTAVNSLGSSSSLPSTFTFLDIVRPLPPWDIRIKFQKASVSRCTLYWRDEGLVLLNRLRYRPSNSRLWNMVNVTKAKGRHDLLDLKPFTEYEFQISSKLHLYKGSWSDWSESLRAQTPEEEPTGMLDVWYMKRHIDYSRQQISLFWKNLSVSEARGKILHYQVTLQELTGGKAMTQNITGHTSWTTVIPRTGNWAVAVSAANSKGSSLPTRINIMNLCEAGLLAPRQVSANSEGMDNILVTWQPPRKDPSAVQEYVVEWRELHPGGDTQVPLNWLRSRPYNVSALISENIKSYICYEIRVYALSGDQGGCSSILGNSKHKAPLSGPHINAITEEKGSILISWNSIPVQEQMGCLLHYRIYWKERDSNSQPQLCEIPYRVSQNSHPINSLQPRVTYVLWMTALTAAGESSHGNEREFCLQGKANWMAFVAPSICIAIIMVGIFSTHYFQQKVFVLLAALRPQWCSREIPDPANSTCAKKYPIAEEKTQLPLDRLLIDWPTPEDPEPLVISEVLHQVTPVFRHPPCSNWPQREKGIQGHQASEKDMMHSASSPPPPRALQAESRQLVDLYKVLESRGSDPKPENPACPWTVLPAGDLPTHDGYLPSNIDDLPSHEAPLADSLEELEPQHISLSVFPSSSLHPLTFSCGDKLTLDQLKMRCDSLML
The target in test [4] is human PD-1 on cells (HEK-PD-1 reporter cells; activated PBMC) (human, UniProt Q15116 25-288). The experiment in a line: cell-based or functional assay.
Sequence of human PD-1 on cells (HEK-PD-1 reporter cells; activated PBMC) (Q15116 25-288): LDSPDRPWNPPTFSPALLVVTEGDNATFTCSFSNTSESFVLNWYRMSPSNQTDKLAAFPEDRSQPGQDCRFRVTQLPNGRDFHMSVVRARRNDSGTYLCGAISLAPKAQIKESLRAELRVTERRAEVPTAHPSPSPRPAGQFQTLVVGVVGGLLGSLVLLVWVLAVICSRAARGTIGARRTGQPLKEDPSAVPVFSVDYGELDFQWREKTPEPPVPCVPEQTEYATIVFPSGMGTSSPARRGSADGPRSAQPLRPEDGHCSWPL
In test [5] the target is T2, human PD-1. The experiment in a line: Biacore and cell-based assays, calibrated by wildtype nivolumab binding affinity.

T2 sequence (Q15116 25-167 limits assumed): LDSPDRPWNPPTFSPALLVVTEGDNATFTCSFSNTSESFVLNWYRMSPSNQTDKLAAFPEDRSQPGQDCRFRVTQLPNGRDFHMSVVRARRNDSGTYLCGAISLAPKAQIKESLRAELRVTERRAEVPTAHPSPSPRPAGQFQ

B1: PD-L2(mut2)-Fc, S58V (Fc fusion)
chain 1: LFTVTVPKELYIIEHGSNVTLECNFDTGSHVNLGAITAVLQKVENDTSPHRERATLLEEQLPLGKASFHIPQVQVRDEGQYQCIIIYGVAWDYKYLTLKVKASYRKINTHILKVPETDEVELTCQATGYPLAEVSWPNVSVPANTSHSRTPEGLYQVTSVLRLKPPPGRNFSCVFWNTHVRELTLASIDLQSQMEPRTHPTGGGGSGGGDKTHTCPPCPAPEDEGGPSVFLFPPKPKDTLMISRTPEVTCVVVDVSHEDPEVKFNWYVDGVEVHNAKTKPREEQYNSTYRVVSVLTVLHQDWLNGKEYKCKVSNKALPAPIEKTISKAKGQPREPQVYVYPPSREEMTKNQVSLTCLVKGFYPSDIAVEWESNGQPENNYKTTPPVLDEDGSFALVSKLTVDKSRWQQGNVFSCSVMHEALHNHYTQKSLSLSPGK
chain 2: B1 chain 1 with D223K, E224K, Y340L, T355L, N379R, K381M, T383W, E389S, A394F, V396Y
notes: also called PD-L2(S58V)
Take B1: the Kd with mouse PD-1 was found to be 230 nM; with human PD-1 [1] it was 350 nM.

B2: PD-L2(mut4)-Fc, T56V/S58V/Q60L (Fc fusion)
chain 1: B1 chain 1 with T37V, Q41L
chain 2: LFTVTVPKELYIIEHGSNVTLECNFDTGSHVNLGAIVAVLLKVENDTSPHRERATLLEEQLPLGKASFHIPQVQVRDEGQYQCIIIYGVAWDYKYLTLKVKASYRKINTHILKVPETDEVELTCQATGYPLAEVSWPNVSVPANTSHSRTPEGLYQVTSVLRLKPPPGRNFSCVFWNTHVRELTLASIDLQSQMEPRTHPTGGGGSGGGDKTHTCPPCPAPEKKGGPSVFLFPPKPKDTLMISRTPEVTCVVVDVSHEDPEVKFNWYVDGVEVHNAKTKPREEQYNSTYRVVSVLTVLHQDWLNGKEYKCKVSNKALPAPIEKTISKAKGQPREPQVYVLPPSREEMTKNQVSLLCLVKGFYPSDIAVEWESNGQPENRYMTWPPVLDSDGSFFLYSKLTVDKSRWQQGNVFSCSVMHEALHNHYTQKSLSLSPGK
Consider B2, for which the results for the dissociation constant Kd with mouse PD-1 and with human PD-1 [1] were 220 nM and 255 nM, respectively.

B3: IL-12(E59A/F60A)/anti-PD-1(D100N) (antibody)
light: not shown
heavy: QVQLVESGGGVVQPGRSLRLDCKASGITFSNSGMHWVRQAPGKGLEWVAVIWYDGSKRYYADSVKGRFTISRDNSKNTLFLQMNSLRAEDTAVYYCATNNDYWGQGTLVTVSSASTKGPSVFPLAPSSKSTSGGTAALGCLVKDYFPEPVTVSWNSGALTSGVHTFPAVLQSSGLYSLSSVVTVPSSSLGTQTYICNVNHKPSNTKVDKKVEPKSCDKPGSGIWELKKDVYVVELDWYPDAPGEMVVLTCDTPEEDGITWTLDQSSEVLGSGKTLTIQVKAAGDAGQYTCHKGGEVLSHSLLLLHKKEDGIWSTDILKDQKEPKNKTFLRCEAKNYSGRFTCWWLTTISTDLTFSVKSSRGSSDPQGVTCGAATLSAERVRGDNKEYEYSVECQEDSACPAAEESLPIEVMVDAVHKLKYENYTSSFFIRDIIKPDPPKNLQLKPLKNSRQVEVSWEYPDTWSTPHSYFSLTFCVQVQGKSKREKKDRVFTDKTSATVICRKNASISVRAQDRYYSSSWSEWASVPCSGGGGSGGGGSGGGGSGGGGSGRNLPVATPDPGMFPCLHHSQNLLRAVSNMLQKARQTLEFYPCTSEEIDHEDITKDKTSTVEACLPLELTKNESCLNSRETSFITNGSCLASRKTSFMMALCLSSIYEDLKMYQVEFKTMNAKLLMDPKRQIFLDQNMLAVIDELMQALNFNSETVPQKSSLEEPDFYKTKIKLCILLHAFRIRAVTIDRVMSYLNASDKTHTCPPCPAPEDEGGPSVFLFPPKPKDTLMISRTPEVTCVVVDVSHEDPEVKFNWYVDGVEVHNAKTKPREEQYNSTYRVVSVLTVLHQDWLNGKEYKCKVSNKALPAPIEKTISKAKGQPREPQVYVYPPSREEMTKNQVSLTCLVKGFYPSDIAVEWESNGQPENNYKTTPPVLDEDGSFALVSKLTVDKSRWQQGNVFSCSVMHEALHNHYTQKSLSLSPGK
heavy (part 1 of 2): QVQLVESGGGVVQPGRSLRLDCKASGITFSNSGMHWVRQAPGKGLEWVAVIWYDGSKRYYADSVKGRFTISRDNSKNTLFLQMNSLRAEDTAVYYCATNNDYWGQGTLVTVSSAS
heavy (part 2 of 2): EPKSCDKTHTCPPCPAPEKKGGPSVFLFPPKPKDTLMISRTPEVTCVVVDVSHEDPEVKFNWYVDGVEVHNAKTKPREEQYNSTYRVVSVLTVLHQDWLNGKEYKCKVSNKALPAPIEKTISKAKGQPREPQVYVLPPSREEMTKNQVSLLCLVKGFYPSDIAVEWESNGQPENRYMTWPPVLDSDGSFFLYSKLTVDKSRWQQGNVFSCSVMHEALHNHYTQKSLSLSPGK
Turning to B3, binding in the test with human PD-1 [2] was characterised by a dissociation constant (Kd) of 25 nM. Further, the “IL-12 signal transduction, HEK IL-12” value in test [3] was less than 0.2%. Further, in test [4], the “IFN-γ release, activated PBMC” value turned out to be 820 ng/mL; the “IL-12 signal transduction, HEK-IL-12-PD-1 (high)” value was 38%; the “IL-12 signal transduction, HEK-IL-12-PD-1 (low)” value stood at 33%.

B4: IL-12(E59A/F60A)/anti-PD-1(D100G) (antibody)
light: not shown
heavy: B3 heavy with N100G
heavy (part 1 of 2): B3 heavy (part 1 of 2) with N100G
heavy (part 2 of 2): B3 heavy (part 2 of 2)
B4 showed a Kd in the test with human PD-1 [2] of 130 nM. For the same molecule, the “IL-12 signal transduction, HEK IL-12” value in test [3] is less than 0.2%. Besides, in test [4], the “IFN-γ release, activated PBMC” value amounted to 120 ng/mL; the “IL-12 signal transduction, HEK-IL-12-PD-1 (high)” value is 33%; the “IL-12 signal transduction, HEK-IL-12-PD-1 (low)” value was found to be 17%.

B5: IL-12(E59A/F60A)/anti-PD-1(D100R) (antibody)
light: not shown
heavy: B3 heavy with N100R
heavy (part 1 of 2): B3 heavy (part 1 of 2) with N100R
heavy (part 2 of 2): B3 heavy (part 2 of 2)
Regarding B5, the dissociation constant (Kd) with human PD-1 [2] stood at 910 nM. The “IL-12 signal transduction, HEK IL-12” value in test [3] is less than 0.2%. In addition, in test [4], the “IFN-γ release, activated PBMC” value amounted to 69 ng/mL; the “IL-12 signal transduction, HEK-IL-12-PD-1 (high)” value turned out to be 10%; the “IL-12 signal transduction, HEK-IL-12-PD-1 (low)” value is 3%.

B6: IL-12(E59A/F60A)/anti-PD-1(N99G) (antibody)
light: not shown
heavy: not shown
heavy (part 1 of 2): B3 heavy (part 1 of 2) with N99G, N100D
heavy (part 2 of 2): B3 heavy (part 2 of 2)
In turn, B6 yielded a Kd in the test with human PD-1 [2] of 2300 nM. For the same molecule, in test [3], the “IL-12 signal transduction, HEK IL-12” value was less than 0.2%. Also, in test [4], the “IFN-γ release, activated PBMC” value was 34 ng/mL; the “IL-12 signal transduction, HEK-IL-12-PD-1 (high)” value was 5%; the “IL-12 signal transduction, HEK-IL-12-PD-1 (low)” value is less than 0.2%.

B7: PD-L2(mut1)-Fc, T56V (Fc fusion)
chain 1: LFTVTVPKELYIIEHGSNVTLECNFDTGSHVNLGAIVASLQKVENDTSPHRERATLLEEQLPLGKASFHIPQVQVRDEGQYQCIIIYGVAWDYKYLTLKVKASYRKINTHILKVPETDEVELTCQATGYPLAEVSWPNVSVPANTSHSRTPEGLYQVTSVLRLKPPPGRNFSCVFWNTHVRELTLASIDLQSQMEPRTHPTDKTHTCPPCPAPEDEGGPSVFLFPPKPKDTLMISRTPEVTCVVVDVSHEDPEVKFNWYVDGVEVHNAKTKPREEQYNSTYRVVSVLTVLHQDWLNGKEYKCKVSNKALPAPIEKTISKAKGQPREPQVYVYPPSREEMTKNQVSLTCLVKGFYPSDIAVEWESNGQPENNYKTTPPVLDEDGSFALVSKLTVDKSRWQQGNVFSCSVMHEALHNHYTQKSLSLSPGK
chain 2: B7 chain 1 with D215K, E216K, Y332L, T347L, N371R, K373M, T375W, E381S, A386F, V388Y
For B7, the dissociation constant Kd stood at 430 nM in the test with mouse PD-1 and 520 nM in the test with human PD-1 [1].

B8: PD-L2(mut3)-Fc, Q60L (Fc fusion)
chain 1: B7 chain 1 with V37T, Q41L
chain 2: LFTVTVPKELYIIEHGSNVTLECNFDTGSHVNLGAITASLLKVENDTSPHRERATLLEEQLPLGKASFHIPQVQVRDEGQYQCIIIYGVAWDYKYLTLKVKASYRKINTHILKVPETDEVELTCQATGYPLAEVSWPNVSVPANTSHSRTPEGLYQVTSVLRLKPPPGRNFSCVFWNTHVRELTLASIDLQSQMEPRTHPTDKTHTCPPCPAPEKKGGPSVFLFPPKPKDTLMISRTPEVTCVVVDVSHEDPEVKFNWYVDGVEVHNAKTKPREEQYNSTYRVVSVLTVLHQDWLNGKEYKCKVSNKALPAPIEKTISKAKGQPREPQVYVLPPSREEMTKNQVSLLCLVKGFYPSDIAVEWESNGQPENRYMTWPPVLDSDGSFFLYSKLTVDKSRWQQGNVFSCSVMHEALHNHYTQKSLSLSPGK
For the molecule B8, the Kd with mouse PD-1 came out at 320 nM; with human PD-1 [1], 490 nM.

B9: anti-PD-1 antibody HC-CDR3(D100R) (antibody, V domains shown)
VH: QVQLVESGGGVVQPGRSLRLDCKASGITFSNSGMHWVRQAPGKGLEWVAVIWYDGSKRYYADSVKGRFTISRDNSKNTLFLQMNSLRAEDTAVYYCATNRDYWGQGTLVTVSS
VL: EIVLTQSPATLSLSPGERATLSCRASQSVSSYLAWYQQKPGQAPRLLIYDASNRATGIPARFSGSGSGTDFTLTISSLEPEDFAVYYCQQSSNWPRTFGQGTKVEIKR
notes: constant parts as m82
Turning to B9, the Kd with human PD-1 [5] was 910 nM.

B10: anti-PD-1 antibody HC-CDR3(N99G) (antibody, V domains shown)
VH: B9 VH with N99G, R100D
VL: B9 VL
notes: constant parts as m82
B10 displayed a Kd with human PD-1 [5] of 2300 nM.
